The results in this text go back to PMC10290082.

The target in this experiment is endogenous MDM2 of SH-SY5Y cells (human (endogenous in SH-SY5Y)) (UniProt Q00987). The experiment is described as follows: AlphaScreen or HTRF; AlphaLISA of extracts of SH-SY5Y cells (MG132), endogenous proteins; D1V2Z-CaptSure acceptor beads and biotinylated HT7 on donor beads; background from Tau-KO SH-SY5Y cells. (Bead proximity is the source of the signal in Alpha formats.)
endogenous MDM2 of SH-SY5Y cells (human (endogenous in SH-SY5Y)), sequence (Q00987 whole entry): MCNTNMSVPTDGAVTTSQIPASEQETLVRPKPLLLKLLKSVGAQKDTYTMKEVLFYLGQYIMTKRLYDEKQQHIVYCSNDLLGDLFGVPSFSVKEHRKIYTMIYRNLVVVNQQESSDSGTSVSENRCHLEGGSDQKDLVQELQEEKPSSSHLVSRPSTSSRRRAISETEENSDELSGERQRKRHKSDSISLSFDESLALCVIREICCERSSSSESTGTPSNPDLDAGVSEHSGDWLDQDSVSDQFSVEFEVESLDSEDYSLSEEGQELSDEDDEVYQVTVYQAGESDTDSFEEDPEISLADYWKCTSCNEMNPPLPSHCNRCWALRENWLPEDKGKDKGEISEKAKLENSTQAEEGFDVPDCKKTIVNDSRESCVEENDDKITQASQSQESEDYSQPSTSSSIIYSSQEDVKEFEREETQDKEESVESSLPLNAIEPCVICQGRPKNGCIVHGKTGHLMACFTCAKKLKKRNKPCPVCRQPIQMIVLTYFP

“endogenous Tau of SH-SY5Y cells (from UniProt P10636 1-758) (natural protein)” came in with an AlphaLISA signal, fold over background of Tau-KO SH-SY5Y cells of 2.7 fold.
